{
  "source": "the supplement of paper PMC10567573",
  "parents": {"B1": {"name": "ZNF511 (parent)", "chain": "HLYPADFRFDKPKKSRSPASAEAP"}},
  "data": [
    {"variants_of": "B1", "experiment": "protein stability index of a GFP-peptide fusion (GPS, HEK-293T) (PSI 1-6); higher = more stable", "settings": "c terminus: a fixed tail appended", "values": [
      {"variant": "HLYPADLRFDKPKKSRSPASAEAP", "note": "[F7L]", "protein stability index": 4.49},
      {"variant": "HLYPADVRFDKPKKSRSPASAEAP", "note": "[F7V]", "protein stability index": 4.62},
      {"variant": "HLYPADWRFDKPKKSRSPASAEAP", "note": "[F7W]", "protein stability index": 2.09},
      {"variant": "HLYPADNRFDKPKKSRSPASAEAP", "note": "[F7N]", "protein stability index": 4.15},
      {"variant": "HLYPADMRFDKPKKSRSPASAEAP", "note": "[F7M]", "protein stability index": 4.38},
      {"variant": "HLYPADKRFDKPKKSRSPASAEAP", "note": "[F7K]", "protein stability index": 4.71},
      {"variant": "HLYPADRRFDKPKKSRSPASAEAP", "note": "[F7R]", "protein stability index": 4.22},
      {"variant": "HLYPADPRFDKPKKSRSPASAEAP", "note": "[F7P]", "protein stability index": 4.24},
      {"variant": "HLYPADQRFDKPKKSRSPASAEAP", "note": "[F7Q]", "protein stability index": 4.62},
      {"variant": "HLYPADSRFDKPKKSRSPASAEAP", "note": "[F7S]", "protein stability index": 4.25},
      {"variant": "HLYPADIRFDKPKKSRSPASAEAP", "note": "[F7I]", "protein stability index": 3.94},
      {"variant": "HLYPADYRFDKPKKSRSPASAEAP", "note": "[F7Y]", "protein stability index": 3.29},
      {"variant": "HLYPADTRFDKPKKSRSPASAEAP", "note": "[F7T]", "protein stability index": 4.25},
      {"variant": "HLYPADFRFDLPKKSRSPASAEAP", "note": "[K11L]", "protein stability index": 2.72},
      {"variant": "HLYPADFRFDEPKKSRSPASAEAP", "note": "[K11E]", "protein stability index": 3.01},
      {"variant": "HLYPADFRFDTPKKSRSPASAEAP", "note": "[K11T]", "protein stability index": 3.02},
      {"variant": "HLYPADFRFDHPKKSRSPASAEAP", "note": "[K11H]", "protein stability index": 2.98},
      {"variant": "HLYPADFRFDVPKKSRSPASAEAP", "note": "[K11V]", "protein stability index": 3.52},
      {"variant": "HLYPADFRFDCPKKSRSPASAEAP", "note": "[K11C]", "protein stability index": 3.21},
      {"variant": "HLYPADFRFDRPKKSRSPASAEAP", "note": "[K11R]", "protein stability index": 2.89},
      {"variant": "HLYPADFRFDFPKKSRSPASAEAP", "note": "[K11F]", "protein stability index": 2.95},
      {"variant": "HLYPADFRFDAPKKSRSPASAEAP", "note": "[K11A]", "protein stability index": 3.14},
      {"variant": "HLYPADFRFDIPKKSRSPASAEAP", "note": "[K11I]", "protein stability index": 3.56},
      {"variant": "HLYPADFRFDWPKKSRSPASAEAP", "note": "[K11W]", "protein stability index": 2.11},
      {"variant": "HLYPADFRFDNPKKSRSPASAEAP", "note": "[K11N]", "protein stability index": 3.37},
      {"variant": "HLYPADFRFDPPKKSRSPASAEAP", "note": "[K11P]", "protein stability index": 2.87},
      {"variant": "HLYPADFRFDDPKKSRSPASAEAP", "note": "[K11D]", "protein stability index": 3.23},
      {"variant": "HLYPADFRFDMPKKSRSPASAEAP", "note": "[K11M]", "protein stability index": 2.62},
      {"variant": "HLYPADFRFDYPKKSRSPASAEAP", "note": "[K11Y]", "protein stability index": 2.44},
      {"variant": "HLYPADFRFDGPKKSRSPASAEAP", "note": "[K11G]", "protein stability index": 3.5},
      {"variant": "HLYPADFRFDSPKKSRSPASAEAP", "note": "[K11S]", "protein stability index": 3.32},
      {"variant": "HLYPADFRFDQPKKSRSPASAEAP", "note": "[K11Q]", "protein stability index": 3.24},
      {"variant": "HLYPADFRFMKPKKSRSPASAEAP", "note": "[D10M]", "protein stability index": 2.99},
      {"variant": "HLYPADFRFPKPKKSRSPASAEAP", "note": "[D10P]", "protein stability index": 2.54},
      {"variant": "HLYPADFRFCKPKKSRSPASAEAP", "note": "[D10C]", "protein stability index": 2.15},
      {"variant": "HLYPADFRFTKPKKSRSPASAEAP", "note": "[D10T]", "protein stability index": 2.69},
      {"variant": "HLYPADFRFLKPKKSRSPASAEAP", "note": "[D10L]", "protein stability index": 3.01},
      {"variant": "HLYPADFRFQKPKKSRSPASAEAP", "note": "[D10Q]", "protein stability index": 2.26},
      {"variant": "HLYPADFRFFKPKKSRSPASAEAP", "note": "[D10F]", "protein stability index": 2.83},
      {"variant": "HLYPADFRFYKPKKSRSPASAEAP", "note": "[D10Y]", "protein stability index": 2.87},
      {"variant": "HLYPADFRFEKPKKSRSPASAEAP", "note": "[D10E]", "protein stability index": 3.08},
      {"variant": "HLYPADFRFKKPKKSRSPASAEAP", "note": "[D10K]", "protein stability index": 2.8},
      {"variant": "HLYPADFRFGKPKKSRSPASAEAP", "note": "[D10G]", "protein stability index": 2.85},
      {"variant": "HLYPADFRFIKPKKSRSPASAEAP", "note": "[D10I]", "protein stability index": 1.87},
      {"variant": "HLYPADFRFVKPKKSRSPASAEAP", "note": "[D10V]", "protein stability index": 2.62},
      {"variant": "HLYPADFRFHKPKKSRSPASAEAP", "note": "[D10H]", "protein stability index": 1.52},
      {"variant": "HLYPADFRFNKPKKSRSPASAEAP", "note": "[D10N]", "protein stability index": 2.39},
      {"variant": "HLYPADFRFAKPKKSRSPASAEAP", "note": "[D10A]", "protein stability index": 2.16},
      {"variant": "HLYPADFRFWKPKKSRSPASAEAP", "note": "[D10W]", "protein stability index": 2.92},
      {"variant": "HLYPADFRFRKPKKSRSPASAEAP", "note": "[D10R]", "protein stability index": 2.71},
      {"variant": "HLYPADFRFSKPKKSRSPASAEAP", "note": "[D10S]", "protein stability index": 3.22},
      {"variant": "HLYPADFLFDKPKKSRSPASAEAP", "note": "[R8L]", "protein stability index": 1.77},
      {"variant": "HLYPADFDFDKPKKSRSPASAEAP", "note": "[R8D]", "protein stability index": 4.13},
      {"variant": "HLYPADFQFDKPKKSRSPASAEAP", "note": "[R8Q]", "protein stability index": 3.11},
      {"variant": "HLYPADFKFDKPKKSRSPASAEAP", "note": "[R8K]", "protein stability index": 3.3},
      {"variant": "HLYPADFWFDKPKKSRSPASAEAP", "note": "[R8W]", "protein stability index": 1.8},
      {"variant": "HLYPADFCFDKPKKSRSPASAEAP", "note": "[R8C]", "protein stability index": 2.8},
      {"variant": "HLYPADFSFDKPKKSRSPASAEAP", "note": "[R8S]", "protein stability index": 2.05},
      {"variant": "HLYPADFPFDKPKKSRSPASAEAP", "note": "[R8P]", "protein stability index": 4.07},
      {"variant": "HLYPADFMFDKPKKSRSPASAEAP", "note": "[R8M]", "protein stability index": 2.64},
      {"variant": "HLYPADFFFDKPKKSRSPASAEAP", "note": "[R8F]", "protein stability index": 2.37},
      {"variant": "HLYPADFAFDKPKKSRSPASAEAP", "note": "[R8A]", "protein stability index": 2.61},
      {"variant": "HLYPADFIFDKPKKSRSPASAEAP", "note": "[R8I]", "protein stability index": 2.03},
      {"variant": "HLYPADFGFDKPKKSRSPASAEAP", "note": "[R8G]", "protein stability index": 2.53},
      {"variant": "HLYPADFEFDKPKKSRSPASAEAP", "note": "[R8E]", "protein stability index": 3.93},
      {"variant": "HLYPADFHFDKPKKSRSPASAEAP", "note": "[R8H]", "protein stability index": 2.82},
      {"variant": "HLYPADFTFDKPKKSRSPASAEAP", "note": "[R8T]", "protein stability index": 2.44},
      {"variant": "HLYPADFYFDKPKKSRSPASAEAP", "note": "[R8Y]", "protein stability index": 2.37},
      {"variant": "HLYPADFVFDKPKKSRSPASAEAP", "note": "[R8V]", "protein stability index": 1.6},
      {"variant": "HLYPADFNFDKPKKSRSPASAEAP", "note": "[R8N]", "protein stability index": 3.1},
      {"variant": "HLYPADFRFDKPKKSRDPASAEAP", "note": "[S17D]", "protein stability index": 3.28},
      {"variant": "HLYPADFRFDKPKKSRAPASAEAP", "note": "[S17A]", "protein stability index": 2.61},
      {"variant": "HLYPADFRFDKPKKSREPASAEAP", "note": "[S17E]", "protein stability index": 3.18},
      {"variant": "HLYPADFRFDKPKKSRCPASAEAP", "note": "[S17C]", "protein stability index": 2.9},
      {"variant": "HLYPADFRFDKPKKSRFPASAEAP", "note": "[S17F]", "protein stability index": 2.7},
      {"variant": "HLYPADFRFDKPKKWRSPASAEAP", "note": "[S15W]", "protein stability index": 1.93},
      {"variant": "HLYPADFRFDKPKKPRSPASAEAP", "note": "[S15P]", "protein stability index": 3.19},
      {"variant": "HLYPADFRFDKPKKTRSPASAEAP", "note": "[S15T]", "protein stability index": 2.4},
      {"variant": "HLYPADFRFDKPKKDRSPASAEAP", "note": "[S15D]", "protein stability index": 3.35},
      {"variant": "HLYPADFRFDKPKKCRSPASAEAP", "note": "[S15C]", "protein stability index": 2.56},
      {"variant": "HLYPADFRFDKPKKKRSPASAEAP", "note": "[S15K]", "protein stability index": 3.24},
      {"variant": "HLYPADFRFDKPKKYRSPASAEAP", "note": "[S15Y]", "protein stability index": 2.51},
      {"variant": "HLYPADFRFDKPKKGRSPASAEAP", "note": "[S15G]", "protein stability index": 2.86},
      {"variant": "HLYPADFRFDKPKKHRSPASAEAP", "note": "[S15H]", "protein stability index": 2.93},
      {"variant": "HLYPADFRFDKPKKFRSPASAEAP", "note": "[S15F]", "protein stability index": 3.04},
      {"variant": "HLYPADFRFDKPKKLRSPASAEAP", "note": "[S15L]", "protein stability index": 2.92},
      {"variant": "HLYPADFRFDKPKKQRSPASAEAP", "note": "[S15Q]", "protein stability index": 3.19},
      {"variant": "HLYPADFRFDKPKKVRSPASAEAP", "note": "[S15V]", "protein stability index": 2.36},
      {"variant": "HLYPADFRFDKPKKRRSPASAEAP", "note": "[S15R]", "protein stability index": 1.78},
      {"variant": "HLYPADFRFDKPKKARSPASAEAP", "note": "[S15A]", "protein stability index": 3.39},
      {"variant": "HLYPADFRFDKPKKMRSPASAEAP", "note": "[S15M]", "protein stability index": 2.88},
      {"variant": "HLYPADFRFDKPKKIRSPASAEAP", "note": "[S15I]", "protein stability index": 3.23},
      {"variant": "HLYPADFRFDKPKKERSPASAEAP", "note": "[S15E]", "protein stability index": 3.18},
      {"variant": "HLYPADFRFDKPKKNRSPASAEAP", "note": "[S15N]", "protein stability index": 2.67}
    ]}
  ]
}
